Test results from patent publication US20200407452A1 (published 2020).

Tests used:
human MET ECD [1] = biological target: T1, human MET ECD (human, UniProt P08581 25-932); assay: ELISA, MET ECD coated, mAb 0-40 nM, mouse IgG format
T1 construct: range 1-932; recombinant; range as printed includes the signal peptide; also called hMET; hMET ECD

mouse MET ECD [2] = biological target: T2, mouse MET ECD (mouse, UniProt P16056 25-931); assay: as above
T2 construct: range 1-931; recombinant; range as printed includes the signal peptide; also called mMET; mMET ECD

[3] = biological target: T3, native mouse MET on living cells (mouse, UniProt P16056 25-1379); assay: FACS, MLP29 cells
T3 construct: whole, on cells; also called Mouse cells (MLP29); MLP29

[4] = biological target: T4, native human MET on living cells (human, UniProt P08581 25-1390); assay: cell-based or functional assay
[5] = biological target: T3, native mouse MET on living cells; assay: cell-based or functional assay
human MET ECD [6] = biological target: T1, human MET ECD; assay: ELISA, MET ECD coated, mAb 0-20 nM
Method: (§1) Production (by transient transfection of mammalian cells) and purification (by protein A affinity chromatography) of the resulting chimeric llama-human IgG1 molecules was outsourced to U-protein Express. Binding of chimeric mAbs to MET was determined by ELISA using hMET or mMET ECD in solid phase and increasing concentrations of antibodies (0-20 nM) in solution. […] Binding capacity (EMAX) varied from antibody to antibody, possibly due to partial epitope exposure in the immobilized antigen, but was similar in the human and mouse setting.

mouse MET ECD [7] = biological target: T2, mouse MET ECD; assay: ELISA, MET ECD coated, mAb 0-20 nM
Method: as §1

[8] = biological target: T4, native human MET on living cells; assay: cell-based or functional assay; remark: listed apart in the source
[9] = biological target: T3, native mouse MET on living cells; assay: cell-based or functional assay; remark: listed apart in the source
human MET ECD [10] = biological target: T1, human MET ECD; assay: ELISA, WT or mutant hMET ECD coated
Method: Using human MET as a template, we mutagenized each of these residues in different permutations, generating a series of MET mutants that are fully human except for specific residues, which are llama. Next, we tested the affinity of selected SEMA-binding mAbs (71D6, 71C3, 71D4, 71A3, 71G2) and PSI-binding mAbs (76H10 and 71G3) for these MET mutants by ELISA. To this end, the various MET proteins were immobilized in solid phase (100 ng/well in a 96-well plate) and then exposed to increasing concentrations of antibodies (0-50 nM) solution. […] Wild-type human MET was used as positive control.
TABLE 24 The epitopes of MET responsible for agonistic antibody binding represent residues conserved among H. sapiens, M. musculus, R. norvegicus, M. fascicularis but not among the same species and L. glama. The relevance of residues conserved among human, mouse, rat, cynomolgus monkey but not llama MET for binding to agonistic mAbs was tested by ELISA. Wild-type (WT) or mutant (MT) human MET ECD was immobilized in solid phase and exposed to increasing concentrations of mAbs in solution. […] All binding values were normalized to the WT protein and are expressed as % binding (EMAX) compared to WT MET.

[11] = biological target: T4, native human MET on living cells; assay: FACS, A549 cells
[12] = biological target: human MET ECD mutant A (mutations 1, 2, 3) (human) (UniProt P08581); assay: ELISA, WT or mutant hMET ECD coated
[13] = biological target: human MET ECD mutant E (mutations 2, 3, 4) (human) (UniProt P08581); assay: ELISA, WT or mutant hMET ECD coated
[14] = biological target: human MET ECD mutant D (mutations 1, 2) (human) (UniProt P08581); assay: ELISA, WT or mutant hMET ECD coated
[15] = biological target: human MET ECD mutant H (mutations 2, 4) (human) (UniProt P08581); assay: ELISA, WT or mutant hMET ECD coated
[16] = biological target: T4, native human MET on living cells; assay: cell-based or functional assay; remark: listed apart in the source
[17] = biological target: T3, native mouse MET on living cells; assay: cell-based or functional assay; remark: listed apart in the source
[18] = biological target: human MET ECD mutant J (mutations 6, 7) (human) (UniProt P08581); assay: ELISA, WT or mutant hMET ECD coated
[19] = biological target: human MET ECD mutant I (mutations 6, 7, 8) (human) (UniProt P08581); assay: ELISA, WT or mutant hMET ECD coated
human MET ECD [20] = biological target: T1, human MET ECD; assay: ELISA, hMET ECD coated
mouse MET ECD [21] = biological target: T2, mouse MET ECD; assay: ELISA, mMET ECD coated

Molecule	EMAX [3] [% CTR]	protection from staurosporine-induced apoptosis EC50, MCF10A cells [4] [nM]	protection from staurosporine-induced apoptosis EMAX, MCF10A cells [4] [%]	protection from staurosporine-induced apoptosis EC50, MLP29 cells [5] [nM]	protection from staurosporine-induced apoptosis EMAX, MLP29 cells [5] [%]	EMAX (human MET ECD [6]) [OD450 AU]	EMAX (mouse MET ECD [7]) [OD450 AU]	A549 MET act. (EMAX, % HGF) [8] [% HGF]	LOC br. m. (branch n.) [8] [branches per spheroid]	MLP29 MET act. (EMAX, % HGF) [9] [% HGF]	MLP29 br. m. (branch n.) [9] [branches per spheroid]	% binding (EMAX) vs WT MET ECD (human MET ECD [10]) [%]	EMAX [11] [% CTR]	% binding (EMAX) vs WT MET ECD [12] [%]	% binding (EMAX) vs WT MET ECD [13] [%]	% binding (EMAX) vs WT MET ECD [14] [%]	% binding (EMAX) vs WT MET ECD [15] [%]	phospho-MET ELISA EMAX, A549 cells [16] [% HGF activity]	phospho-MET ELISA EMAX, MLP29 cells [17] [% HGF activity]	other results
5D5 mouse anti-human MET antibody																				EC50 (human MET ECD [1]): 0.197 nM; EMAX (human MET ECD [1]): 3.16 OD450; EC50 (mouse MET ECD [2]): > 40 nM
71G2 chimeric llama-human IgG1 mAb (antibody, V domains shown, human IgG1 CH1-CH2-CH3 and human CL lambda; also called 71G2 Human IgG1/lambda) VH: EVQLQESGGGLVQPGGSLRLSCAASGFTFSIYDMSWVRQAPGKGLEWVSTINSDGSSTSYVDSVKGRFTISRDNAKNTLYLQMNSLKPEDTAVYYCAKVYGSTWDVGPMGYGMDYWGKGTLVTVSS VL: SSALTQPSALSVSLGQTARITCQGGSLGSSYAHWYQQKPGQAPVLVIYGDDSRPSGIPERFSGSSSGGTATLTISGAQAEDEDDYYCQSTDSSGNTVFGGGTRLTVL	131	1.06	64.8	1.99	58.3	3.09	3.17	106	31.7	110	45	100	137	92.1	41.4	114	40.2	101	110	
71A3 chimeric llama-human IgG1 mAb (antibody, V domains shown, human IgG1 CH1-CH2-CH3 and human CL lambda) VH: EVQLVESGGGLVQPGGSLRLSCAASGFSFKDYDITWVRQAPGKGLEWVSTITSRSGSTSYVDSVKGRFTISGDNAKNTLYLQMNSLKPEDTAVYYCAKVYATTWDVGPLGYGMDYWGKGTLVTVSS VL: SYELTQPSALSVTLGQTAKITCQGGSLGSSYAHWYQQKPGQAPVLVIYDDDSRPSGIPERFSGSSSGGTATLTISGAQAEDEGDYYCQSADSSGNAAVFGGGTHLTVL		< 0.5	71.7	< 0.5	70.5	2.4	2.73					100		117	65.4	128	76.7	86.6	96	
76H10 chimeric llama-human IgG1 mAb (antibody, V domains shown, human IgG1 CH1-CH2-CH3 and human CL lambda) VH: QLQLVESGGGLVQPGGSLRVSCTASGFTFNTYYMTWVRQAPGKGLEWVSDINSGGGTYYADSVKGRFTISRDNAKNTLYLQMNSLKPEDTALYYCVRVRIWPVGYDYWGQGTQVTVSS VL: QAVVTQEPSLSVSPGGTVTLTCGLSSGSVTTSNYPGWFQQTPGQAPRTLIYNTNNRHSGVPSRFSGSISGNKAALTITGAQPEDEADYYCSLYTGSYTTVFGGGTHLTVL		> 32	22.8	> 32	27.2	2.67	2.66											61.2	64.1	% binding (EMAX) vs WT MET ECD [18]: 89%; % binding (EMAX) vs WT MET ECD [19]: 100%
71G3 chimeric llama-human IgG1 mAb (antibody, V domains shown, human IgG1 CH1-CH2-CH3 and human CL lambda; also called 71G3 Human IgG1/lambda) VH: QVQLVESGGGLVQPGGSLRVSCAASGFTFSTYYMSWVRQAPGKGLEWVSDIRTDGGTYYADSVKGRFTMSRDNAKNTLYLQMNSLKPEDTALYYCARTRIFPSGYDYWGQGTQVTVSS VL: QAVVTQEPSLSVSPGGTVTLTCGLSSGSVTTSNYPGWFQQTPGQAPRTLIYNTNSRHSGVPSRFSGSISGNKAALTIMGAQPEDEADYYCSLYPGSTTVFGGGTHLTVL	112	5.04	65.2	4.85	62.3	2.83	2.98	94.3	22.3	96.8	29.3		110					95.7	97.8	% binding (EMAX) vs WT MET ECD [18]: 91.2%; % binding (EMAX) vs WT MET ECD [19]: 100%
71D6 chimeric llama-human IgG1 mAb (antibody, V domains shown, human IgG1 CH1-CH2-CH3 and human CL lambda; also called 71D6 Human IgG1/lambda) VH: ELQLVESGGGLVQPGGSLRLSCAASGFTFSSYGMSWVRQAPGKGLEWVSAINSYGGSTSYADSVKGRFTISRDNAKNTLYLQMNSLKPEDTAVYYCAKEVRADLSRYNDYESYDYWGQGTQVTVSS VL: QPVLNQPSALSVTLGQTAKITCQGGSLGARYAHWYQQKPGQAPVLVIYDDDSRPSGIPERFSGSSSGGTATLTISGAQAEDEGDYYCQSADSSGSVFGGGTHLTVL	120	1.48	66.8	0.95	68.3	2.08	2.01	104	32.7	110	41.3	100	115	103	43.6	128	38.6	102	115	EC50 (human MET ECD [20]): 0.032 nM; EC50 (mouse MET ECD [21]): 0.036 nM
71D6 llama-mouse chimeric mAb (mouse IgG1/lambda) (antibody, V domains shown, also called 71D6 Mouse IgG1/lambda) VH: ELQLVESGGGLVQPGGSLRLSCAASGFTFSSYGMSWVRQAPGKGLEWVSAINSYGGSTSYADSVKGRFTISRDNAKNTLYLQMNSLKPEDTAVYYCAKEVRADLSRYNDYESYDYWGQGTQVTVSS VL: QPVLNQPSALSVTLGQTAKITCQGGSLGARYAHWYQQKPGQAPVLVIYDDDSRPSGIPERFSGSSSGGTATLTISGAQAEDEGDYYCQSADSSGSVFGGGTHLTVLG									30.4		39.5									EC50 (mouse MET ECD [21]): 0.036 nM
